# Assay results taken from PMC6753178.
# Where two headings read alike, the source gives them in different places.
# B1: CCL19^CCL21N-term chimera (ligand)
# chain: SDGGAQDCCLKYSQRKIPGYIVRNFHYLLIKDGCRVPAVVFTTLRGRQLCAPPDQPWVERIIQRLQRTSAKMKRRSS
# How the values were obtained:
# [1] = target: CCR7 L61A (human) (UniProt P32248)
# [2] = target: CCR7 E205A (human) (UniProt P32248)
# [3] = target: CCR7 R54A (human) (UniProt P32248)
# [4] = target: CCR7 Y65A (human) (UniProt P32248)
# [5] = target: CCR7 Y308A (human) (UniProt P32248)
# [6] = target: CCR7 K50A (human) (UniProt P32248)
# [7] = target: CCR7 N305A (human) (UniProt P32248)
# [8] = target: CCR7 A118S (human) (UniProt P32248)
# [9] = target: CCR7 K137A (human) (UniProt P32248)
# [10] = target: CCR7 K57A (human) (UniProt P32248)
# [11] = target: CCR7 E193A (human) (UniProt P32248)
# [12] = target: CCR7 S117A (human) (UniProt P32248)
# [13] = target: CCR7 W114A (human) (UniProt P32248)
# [14] = target: CCR7 R209A (human) (UniProt P32248)
# [15] = target: CCR7 F133A (human) (UniProt P32248)
# [16] = target: CCR7 F107A (human) (UniProt P32248)
# [17] = target: human CCR7 wild type (human) (UniProt P32248)
# [18] = target: CCR7 R209A (human) (UniProt P32248); remark: listed apart in the source
# [19] = target: CCR7 L61A (human) (UniProt P32248); remark: listed apart in the source
# [20] = target: CCR7 R54A (human) (UniProt P32248); remark: listed apart in the source
# [21] = target: CCR7 W114A (human) (UniProt P32248); remark: listed apart in the source
# [22] = target: CCR7 R209A (human) (UniProt P32248); remark: listed apart in the source
# [23] = target: human CCR7 wild type (human) (UniProt P32248); remark: listed apart in the source
# [24] = target: human CCR7 wild type (human) (UniProt P32248); remark: listed apart in the source
molecule,measurement,setting,value
human chemokine CCL19 (from UniProt Q99731 22-98) (ligand),"G protein signaling (BRET cAMP Camyel sensor, transfected CHO-k1 cells): -logEC50 (M) of CCL19",[1],8.9 -logEC50 (M)
same,"G protein signaling (BRET cAMP Camyel sensor, transfected CHO-k1 cells): FMut, fold change of CCL19 potency compared to WT CCR7",[1],3 fold
same,"G protein signaling (BRET cAMP Camyel sensor, transfected CHO-k1 cells): -logEC50 (M) of CCL19",[2],9.2 -logEC50 (M)
same,"G protein signaling (BRET cAMP Camyel sensor, transfected CHO-k1 cells): FMut, fold change of CCL19 potency compared to WT CCR7",[2],3 fold
same,"G protein signaling (BRET cAMP Camyel sensor, transfected CHO-k1 cells): -logEC50 (M) of CCL19",[3],7.1 -logEC50 (M)
same,"G protein signaling (BRET cAMP Camyel sensor, transfected CHO-k1 cells): FMut, fold change of CCL19 potency compared to WT CCR7",[3],100 fold
same,"G protein signaling (BRET cAMP Camyel sensor, transfected CHO-k1 cells): -logEC50 (M) of CCL19",[4],9 -logEC50 (M)
same,"G protein signaling (BRET cAMP Camyel sensor, transfected CHO-k1 cells): FMut, fold change of CCL19 potency compared to WT CCR7",[4],2 fold
same,"G protein signaling (BRET cAMP Camyel sensor, transfected CHO-k1 cells): -logEC50 (M) of CCL19",[5],9.1 -logEC50 (M)
same,"G protein signaling (BRET cAMP Camyel sensor, transfected CHO-k1 cells): FMut, fold change of CCL19 potency compared to WT CCR7",[5],2 fold
same,"G protein signaling (BRET cAMP Camyel sensor, transfected CHO-k1 cells): -logEC50 (M) of CCL19",[6],8.5 -logEC50 (M)
same,"G protein signaling (BRET cAMP Camyel sensor, transfected CHO-k1 cells): FMut, fold change of CCL19 potency compared to WT CCR7",[6],13 fold
same,"G protein signaling (BRET cAMP Camyel sensor, transfected CHO-k1 cells): -logEC50 (M) of CCL19",[7],8.6 -logEC50 (M)
same,"G protein signaling (BRET cAMP Camyel sensor, transfected CHO-k1 cells): FMut, fold change of CCL19 potency compared to WT CCR7",[7],4 fold
same,"G protein signaling (BRET cAMP Camyel sensor, transfected CHO-k1 cells): -logEC50 (M) of CCL19",[8],9.7 -logEC50 (M)
same,"G protein signaling (BRET cAMP Camyel sensor, transfected CHO-k1 cells): FMut, fold change of CCL19 potency compared to WT CCR7",[8],2 fold
same,"G protein signaling (BRET cAMP Camyel sensor, transfected CHO-k1 cells): -logEC50 (M) of CCL19",[9],9.2 -logEC50 (M)
same,"G protein signaling (BRET cAMP Camyel sensor, transfected CHO-k1 cells): FMut, fold change of CCL19 potency compared to WT CCR7",[9],3 fold
same,"G protein signaling (BRET cAMP Camyel sensor, transfected CHO-k1 cells): -logEC50 (M) of CCL19",[10],9.2 -logEC50 (M)
same,"G protein signaling (BRET cAMP Camyel sensor, transfected CHO-k1 cells): FMut, fold change of CCL19 potency compared to WT CCR7",[10],2 fold
same,"G protein signaling (BRET cAMP Camyel sensor, transfected CHO-k1 cells): -logEC50 (M) of CCL19",[11],9.6 -logEC50 (M)
same,"G protein signaling (BRET cAMP Camyel sensor, transfected CHO-k1 cells): FMut, fold change of CCL19 potency compared to WT CCR7",[11],3 fold
same,"G protein signaling (BRET cAMP Camyel sensor, transfected CHO-k1 cells): -logEC50 (M) of CCL19",[12],9.5 -logEC50 (M)
same,"G protein signaling (BRET cAMP Camyel sensor, transfected CHO-k1 cells): FMut, fold change of CCL19 potency compared to WT CCR7",[12],1 fold
same,"G protein signaling (BRET cAMP Camyel sensor, transfected CHO-k1 cells): -logEC50 (M) of CCL19",[13],8 -logEC50 (M)
same,"G protein signaling (BRET cAMP Camyel sensor, transfected CHO-k1 cells): FMut, fold change of CCL19 potency compared to WT CCR7",[13],13 fold
same,"G protein signaling (BRET cAMP Camyel sensor, transfected CHO-k1 cells): -logEC50 (M) of CCL19",[14],8.5 -logEC50 (M)
same,"G protein signaling (BRET cAMP Camyel sensor, transfected CHO-k1 cells): FMut, fold change of CCL19 potency compared to WT CCR7",[14],8 fold
same,"G protein signaling (BRET cAMP Camyel sensor, transfected CHO-k1 cells): -logEC50 (M) of CCL19",[15],8.7 -logEC50 (M)
same,"G protein signaling (BRET cAMP Camyel sensor, transfected CHO-k1 cells): FMut, fold change of CCL19 potency compared to WT CCR7",[15],1 fold
same,"G protein signaling (BRET cAMP Camyel sensor, transfected CHO-k1 cells): -logEC50 (M) of CCL19",[16],8.9 -logEC50 (M)
same,"G protein signaling (BRET cAMP Camyel sensor, transfected CHO-k1 cells): FMut, fold change of CCL19 potency compared to WT CCR7",[16],2 fold
same,"G protein signaling (BRET cAMP Camyel sensor, CHO-k1 cells transfected with CCR7): logEC50",[17],-9.4 logEC50 (M)
same,"β-arrestin-2 recruitment (bystander BRET, CHO-k1 cells transfected with CCR7): logEC50",[17],-7.9 logEC50 (M)
same,Transwell migration of stably transfected 300–19 pre-B cells: activity at 10 nM CCL19 relative to WT CCR7,[18],42 % of WT
same,Transwell migration of stably transfected 300–19 pre-B cells: % specific migration at 10 nM CCL19,[19],7.5%
same,Transwell migration of stably transfected 300–19 pre-B cells: % specific migration at 10 nM CCL19,[20],-0.1%
same,Transwell migration of stably transfected 300–19 pre-B cells: % specific migration at 10 nM CCL19,[21],1%
same,Transwell migration of stably transfected 300–19 pre-B cells: % specific migration at 10 nM CCL19,[22],5%
same,Transwell migration of stably transfected 300–19 pre-B cells: % specific migration at 10 nM CCL19,[23],11.6%
same,"G protein signaling (BRET cAMP Camyel sensor, CHO-k1 cells transfected with CCR7): signal at 100 nM chemokine, normalized to CCL19",[24],92%
human chemokine CCL21 (from UniProt O00585 24-134) (ligand),"G protein signaling (BRET cAMP Camyel sensor, transfected CHO-k1 cells): efficacy at 100 nM CCL21, normalized to WT CCR7",[1],44 % of WT
same,"G protein signaling (BRET cAMP Camyel sensor, transfected CHO-k1 cells): efficacy at 100 nM CCL21, normalized to WT CCR7",[2],48 % of WT
same,"G protein signaling (BRET cAMP Camyel sensor, transfected CHO-k1 cells): efficacy at 100 nM CCL21, normalized to WT CCR7",[4],44 % of WT
same,"G protein signaling (BRET cAMP Camyel sensor, transfected CHO-k1 cells): efficacy at 100 nM CCL21, normalized to WT CCR7",[5],38 % of WT
same,"G protein signaling (BRET cAMP Camyel sensor, transfected CHO-k1 cells): efficacy at 100 nM CCL21, normalized to WT CCR7",[7],53 % of WT
same,"G protein signaling (BRET cAMP Camyel sensor, transfected CHO-k1 cells): efficacy at 100 nM CCL21, normalized to WT CCR7",[8],67 % of WT
same,"G protein signaling (BRET cAMP Camyel sensor, transfected CHO-k1 cells): efficacy at 100 nM CCL21, normalized to WT CCR7",[9],43 % of WT
same,"G protein signaling (BRET cAMP Camyel sensor, transfected CHO-k1 cells): efficacy at 100 nM CCL21, normalized to WT CCR7",[10],99 % of WT
same,"G protein signaling (BRET cAMP Camyel sensor, transfected CHO-k1 cells): efficacy at 100 nM CCL21, normalized to WT CCR7",[11],45 % of WT
same,"G protein signaling (BRET cAMP Camyel sensor, transfected CHO-k1 cells): efficacy at 100 nM CCL21, normalized to WT CCR7",[12],68 % of WT
same,"G protein signaling (BRET cAMP Camyel sensor, transfected CHO-k1 cells): efficacy at 100 nM CCL21, normalized to WT CCR7",[13],32 % of WT
same,"G protein signaling (BRET cAMP Camyel sensor, transfected CHO-k1 cells): efficacy at 100 nM CCL21, normalized to WT CCR7",[14],132 % of WT
same,"G protein signaling (BRET cAMP Camyel sensor, transfected CHO-k1 cells): efficacy at 100 nM CCL21, normalized to WT CCR7",[15],27 % of WT
same,"G protein signaling (BRET cAMP Camyel sensor, transfected CHO-k1 cells): efficacy at 100 nM CCL21, normalized to WT CCR7",[16],76 % of WT
same,Transwell migration of stably transfected 300–19 pre-B cells: activity at 10 nM CCL21 relative to WT CCR7,[18],2.5 fold
same,Transwell migration of stably transfected 300–19 pre-B cells: % specific migration at 10 nM CCL21,[19],4%
same,Transwell migration of stably transfected 300–19 pre-B cells: % specific migration at 10 nM CCL21,[20],0.3%
same,Transwell migration of stably transfected 300–19 pre-B cells: % specific migration at 10 nM CCL21,[21],0.6%
same,Transwell migration of stably transfected 300–19 pre-B cells: % specific migration at 10 nM CCL21,[22],10.6%
same,Transwell migration of stably transfected 300–19 pre-B cells: % specific migration at 10 nM CCL21,[23],5.1%
B1,"G protein signaling (BRET cAMP Camyel sensor, CHO-k1 cells transfected with CCR7): logEC50",[24],-8.9 logEC50 (M)
same,"G protein signaling (BRET cAMP Camyel sensor, CHO-k1 cells transfected with CCR7): signal at 100 nM chemokine, normalized to CCL19",[24],90%
